This passage reports MdsA crosslinked, percent of that with wild-type MdsC and crosslinking to MdsC, percent of wild type results from publication PMC4069162.

Test in all cases: cross-linking; in vivo cross-linking with DSP in S. enterica ATCC14028SΔacrABΔmdsABC::Cm5ΔtolC::Tn10 cells coexpressing MdsA-flag, MdsB-myc and MdsC-hexahistidine (grown to OD600 = 0.8); MdsC-His isolated on a Ni-NTA resin column, cross-linked MdsA detected by anti-flag immunoblot
Background: In western blotting, separated proteins are transferred to a membrane and probed.

Experiment [1] concerns the target MdsC-G433A with a c-terminal hexahistidine tag (Salmonella enterica serovar Typhimurium ATCC14028S).
Experiment [2] deals with MdsC-G220A with a c-terminal hexahistidine tag (Salmonella enterica serovar Typhimurium ATCC14028S).
For experiment [3], the target named is MdsC-L441R with a c-terminal hexahistidine tag (Salmonella enterica serovar Typhimurium ATCC14028S).
The target in experiment [4] is MdsC with a c-terminal hexahistidine tag (wild type) (Salmonella enterica serovar Typhimurium ATCC14028S).

In the case of “MdsA with a c-terminal flag tag (wild type) (from UniProt A0A4P7XPD4 1-408) (natural protein)”, the figures for the MdsA crosslinked, percent of that with wild-type MdsC in experiment [1], in experiment [2] and in experiment [3] were 39%, 20% and 16%, respectively.
On to “MdsA-S146D with a c-terminal flag tag (from UniProt A0A4P7XPD4 1-408) (natural protein)”, for which the crosslinking to MdsC, percent of wild type in experiment [4] was 16%.
